Measurements from paper PMC3476528.
Several values for one entry are separate records, joined by “and”; a condition that tells them apart may be missing. Identical values can stand only once. Blank lines part the entries; values can stand above or below the binder they belong to.

What was measured:
[1] = biological target: T1, nucleosome core particle reconstituted from recombinant X. laevis histones and a 168 bp fragment of 601-DNA (X. laevis); assay: native gel or EMSA; 50 fmol radiolabeled mononucleosomes with increasing amounts of CHD4 constructs, 15 min on ice, 20 Tris-HCl pH 8, 200 mM NaCl, 10% sucrose; 5% native polyacrylamide gel, autoradiography
[2] = biological target: T2, histone H3 peptide 1-21 monomethylated on K9, biotinylated, P68431; assay: SPR; biotinylated histone H3 peptides immobilised on streptavidin sensor, CHD4 constructs injected at 100 μl/min; 25 °C; 20 mM Tris pH 7.5, 200 mM NaCl, 0.05% polysorbate 20; Kd from the steady-state response, sensorgrams when appropriate globally fitted; three repeats
[3] = biological target: T3, histone H3 peptide 1-21 dimethylated on K9, biotinylated, P68431; assay: as above
[4] = biological target: T4, histone H3 peptide 1-21 trimethylated on K9, biotinylated, P68431; assay: as above
[5] = biological target: histone H3 peptide 1-21, unmodified, biotinylated, P68431; assay: as above
[6] = biological target: T2, histone H3 peptide 1-21 monomethylated …; assay: SPR; as a1 but tPHDtCHD/ATPase injected with added ATP
[7] = biological target: T3, histone H3 peptide 1-21 dimethylated on …; assay: as above
[8] = biological target: T4, histone H3 peptide 1-21 trimethylated …; assay: as above
[9] = biological target: histone H3 peptide 1-21, unmodified, biotinylated, P68431; assay: as above
[10] = biological target: T1, nucleosome core particle reconstituted …

concentration necessary for binding [1]: 0.5 µM
Kd [2]: 24 µM
Kd [3]: 8.6 µM
koff [3]: 0.31 s⁻¹
Kd [4]: 21 µM and 10 µM
kon [4]: 33000 M⁻¹ s⁻¹
Kd [5]: 14 µM and 19 µM
koff [5]: 0.68 s⁻¹
kon [5]: 50000 M⁻¹ s⁻¹
B1: CHD4 tPHDtCHD construct (tandem PHD and tandem chromodomains) (domain or fragment)
chain: YETDHQDYCEVCQQGGEIILCDTCPRAYHMVCLDPDMEKAPEGKWSCPHCEKEGIQWEAKEDNSEGEEILEEVGGDLEEEDDHHMEFCRVCKDGGELLCCDTCPSSYHIHCLNPPLPEIPNGEWLCPRCTCPALKGKVQKILIWKWGQPPSPTPVPRPPDADPNTPSPKPLEGRPERQFFVKWQGMSYWHCSWVSELQLELHCQVMFRNYQRKNDMDEPPSGDFGGDEEKSRKRKNKDPKFAEMEERFYRYGIKPEWMMIHRILNHSVDKKGHVHYLIKWRDLPYDQASWESEDVEIQDYDLFKQSYWNHRELMRGEEGRPGKKLKKVKLRKL
modifications: not checked

concentration necessary for binding [1]: 10 to 20 µM
Kd [2]: 42 µM
Kd [3]: 63 µM and 51 µM
koff [3]: 0.2 s⁻¹
kon [3]: 3900 M⁻¹ s⁻¹
Kd [4]: 70 µM and 48 µM
koff [4]: 0.17 s⁻¹
kon [4]: 3500 M⁻¹ s⁻¹
Kd [5]: 190 µM and 188 µM
koff [5]: 0.49 s⁻¹
kon [5]: 2600 M⁻¹ s⁻¹
B2: CHD4 tandem plant homeodomain zinc fingers (tPHD) construct (domain or fragment)
chain: YETDHQDYCEVCQQGGEIILCDTCPRAYHMVCLDPDMEKAPEGKWSCPHCEKEGIQWEAKEDNSEGEEILEEVGGDLEEEDDHHMEFCRVCKDGGELLCCDTCPSSYHIHCLNPPLPEIPNGEWLCPRCTCPALKGK
modifications: not checked

Kd [6]: 6.9 µM
Kd [7]: 1.7 µM
koff [7]: 0.0073 s⁻¹
kon [7]: 4300 M⁻¹ s⁻¹
Kd [8]: 0.5 µM
koff [8]: 0.018 s⁻¹
kon [8]: 36000 M⁻¹ s⁻¹
Kd [9]: 1.4 µM
koff [9]: 0.0265 s⁻¹
kon [9]: 18900 M⁻¹ s⁻¹
concentration necessary for binding [1]: 0.06 µM
ATPase activity (kcat, phosphate release assay) with 0.32 pmol of mono-nucleosome particles; about 6-fold stimulation [10]: 0.0615 s⁻¹
Kd [2]: 2.9 µM
koff [2]: 0.026 s⁻¹
kon [2]: 900 M⁻¹ s⁻¹
Kd [3]: 4.7 µM
koff [3]: 0.0056 s⁻¹
kon [3]: 1200 M⁻¹ s⁻¹
Kd [4]: 2.6 µM
koff [4]: 0.025 s⁻¹
kon [4]: 1000 M⁻¹ s⁻¹
Kd [5]: 4.1 µM
koff [5]: 0.0135 s⁻¹
kon [5]: 3300 M⁻¹ s⁻¹
B3: CHD4 tPHDtCHD/ATPase construct (minimal construct containing all three domains) (domain or fragment)
chain: YETDHQDYCEVCQQGGEIILCDTCPRAYHMVCLDPDMEKAPEGKWSCPHCEKEGIQWEAKEDNSEGEEILEEVGGDLEEEDDHHMEFCRVCKDGGELLCCDTCPSSYHIHCLNPPLPEIPNGEWLCPRCTCPALKGKVQKILIWKWGQPPSPTPVPRPPDADPNTPSPKPLEGRPERQFFVKWQGMSYWHCSWVSELQLELHCQVMFRNYQRKNDMDEPPSGDFGGDEEKSRKRKNKDPKFAEMEERFYRYGIKPEWMMIHRILNHSVDKKGHVHYLIKWRDLPYDQASWESEDVEIQDYDLFKQSYWNHRELMRGEEGRPGKKLKKVKLRKLERPPETPTVDPTVKYERQPEYLDATGGTLHPYQMEGLNWLRFSWAQGTDTILADEMGLGKTVQTAVFLYSLYKEGHSKGPFLVSAPLSTIINWEREFEMWAPDMYVVTYVGDKDSRAIIRENEFSFEDNAIRGGKKASRMKKEASVKFHVLLTSYELITIDMAILGSIDWACLIVDEAHRLKNNQSKFFRVLNGYSLQHKLLLTGTPLQNNLEELFHLLNFLTPERFHNLEGFLEEFADIAKEDQIKKLHDMLGPHMLRRLKADVFKNMPSKTELIVRVELSPMQKKYYKYILTRNFEALNARGGGNQVSLLNVVMDLKKCCNHPYLFPVAAMEAPKMPNGMYDGSALIRASGKLLLLQKMLKNLKEGGHRVLIFSQMTKMLDLLEDFLEHEGYKYERIDGGITGNMRQEAIDRFNAPGAQQFCFLLSTRAGGLGINLATADTVIIYDSDWNPHNDIQAFSRAHRIGQNKKVMIYRFVTRASVEERITQVAKKKMMLTHLVVRPGL
modifications: not checked
